Publication PMC4295097

target: meditope-enabled trastuzumab; assay: SPR

| Kd [nM] | kon [M⁻¹ s⁻¹] | Substance |
| --- | --- | --- |
| 170 | 160000 | meditope-protein L construct with zero length linker (designed binder) |
| 1.3 | – | meditope-protein L construct with three-residue linker PSE (designed binder) |
| 1.1 | – | meditope-protein L construct with six-residue linker PPPGPP (designed binder) |
| 0.18 | – | meditope-protein L construct with six-residue linker GGPGSE (designed binder) |
| 0.18 | – | meditope-protein L construct with six-residue linker GGGGSE (designed binder) |
